The values below come from article PMC11535050 (The EMBO Journal, 2024).

The target in series [1] is NatR anti-toxin (PA1029), co-expressed with His-tagged NatT in E. coli (Pseudomonas aeruginosa). Put plainly: mass photometry; co-purified NatR-NatT complexes at a final concentration of 10 nM, 50 mM Bicine pH 8.5, 50 mM KCl, Refeyn OneMP.
Series [2] addresses NatT toxin (PA1030), His-tagged, wild type (Pseudomonas aeruginosa) (UniProt Q9I4U4). Described as above.
Series [3] addresses NatR anti-toxin (PA1029), co-expressed with His-tagged NatT in E. coli (Pseudomonas aeruginosa). Kind of series: crystal structure; NatR-NatT wild-type complex, sitting drop, 2.5 mg/ml, 0.2 M sodium sulfate, 0.1 M Bis-Tris propane 7.5, 20% PEG 3350, 20 C.
Series [4] deals with the molecule itself. The description is as above.

The term stoichiometry N denotes the number of molecules, sites or subunits per partner or assembly. As to “NatR anti-toxin (PA1029), co-expressed with His-tagged NatT in E. coli (natural protein)”, the stoichiometry N in series [1] and in series [3] was 2 each time. In addition, in series [2], the stoichiometry N (NatR per NatT) came out at 2.

B1: NatT toxin (PA1030), His-tagged, wild type (enzyme)
chain: SEIWRQCKGERHIRPLQGRLVRLVESQEQVATLQLVDTLEEQALLEELLESSKPPVPADAEPLHYLLKTPFRYPPLRWGSRFGRRHEPSLFYAALKLETAMAESAYYRCVLWSGMVVPPPSGRILSEHASFEAGWKVERGIRLQAPPFSDHEAALTDIADYRAPQELGSAMRSAGVQAFEYRSARCPERGCNVALFTPAAFTEKRPRNLTPWLCETTAGYVAFKPAHVPGSPKIFSWELFLVDGKLPHPA
notes: also called NAD+ degrading toxin; RES domain toxin; source: E. coli BL21 (DE3), pRSF-Duet-1, co-expressed with NatR, purified as a complex (HisTrap, SEC)
As for B1, the “stoichiometry N” value in series [4] stood at 2.
